According to paper PMC9272825 (The Journal of Physical Chemistry. B, 2022):
Where “and” joins values, the source holds several entries; their conditions need not be identical. Equal entries are not always repeated.

Target: N-terminal domain of enzyme I (EIN) (UniProt P08839 1-249)
Test: NMR titration

B1: Histidine phosphocarrier protein (HPr) (natural protein)
chain: not shown
Kd: 2820 nM and 2450 nM and 3030 nM and 3020 nM
